According to patent US20110159598A1 (LES LABORATOIRES SERVIER, published 2011):
Each block holds one molecule with its values, some of them ahead of it. No end group written: not given here.

What was measured:
K63 polyubiquitin chains = assay: cell-based or functional assay
[1] = target: human NEMO mutant A323P, FLAG-tagged (human) (UniProt Q9Y6K9); assay: cell-based or functional assay
X-ray crystal structure = target: the molecule itself; assay: X-ray crystal structure
[2] = target: T1, CC2-LZ domain of NEMO (species and construct not stated for this assay) (Mus musculus (Mouse), UniProt O88522 251-337); assay: fluorescence polarisation, N-terminally Fluorescein- or Cy5-labelled peptide, pH 7, ambient temperature, 20 mM Tris-Acetate-MES, 200 mM KCl, 0.5% Tween 20
T1 construct: not shown: N-terminal histidine tag and vector residues from pET28
Experimental: These measurements are carried out at pH 7 and at ambient temperature in a stringent buffer corresponding to 20 mM Tris-Acetate-MES containing 200 mM potassium chloride and 0.5% Tween 20. They are carried out by fluorescence polarisation with the aid of peptides coupled at the N-terminal with the fluorophores Fluorescein or Cy5. For forming the peptide probes of the invention, the peptides can be coupled to any kind of fluorophore.

[3] = target: the molecule itself; assay: gel filtration on Superdex 75, same elution profile as the wild-type CC2-LZ protein

Molecule: human NEMO mutant A323P, FLAG-tagged (from UniProt Q9Y6K9 1-419)
inhibition of TNFα-dependent activation of the NF-κB pathway (Igκ-luciferase reporter in NEMO-deficient mouse embryo fibroblasts) [1]: 95%

B1: CC2-LZ domain of murine NEMO (aa 251-337), N-terminal histidine tag (other)
chain: MQLEDLRQQLQQAEEALVAKQELIDKLKEEAEQHKIVMETVPVLKAQADIYKADFQAERHAREKLVEKKEYLQEQLEQLQREFNKLK
notes: Expressed in E. coli BL21-gold (DE3); Forms a parallel coiled-coil dimer in the crystal; also called CC2-LZ protein; Nemo CC2LZ; not shown: N-terminal histidine tag from plasmid pET28
binding result (X-ray crystal structure): binds

B4: human CC2-LZ domain of NEMO (Tax CC2-LZ, Met 215 to Glu 362) mutant F312A (other)
chain: MERQAASEEKRKLAQLQVAYHQLFQEYDNHIKSSVVGSERKRGMQLEDLKQQLQQAEEALVAKQEVIDKLKEEAEQHKIVMETVPVLKAQADIYKADAQAERQAREKLAEKKELLQEQLEQLQREYSKLKASCQESARIEDMRKRHVE
notes: also called CC2-LZ F312A; not shown: vector-derived tag of pET-28b (protein purified on Ni-NTA)
binding result [3]: binds

Results, then the molecule that gave them:

inhibition of TNFα-dependent activation of the NF-κB pathway (Igκ-luciferase reporter in NEMO-deficient mouse embryo fibroblasts) (K63 polyubiquitin chains): 78%
Molecule: human NEMO mutant F312A, FLAG-tagged (from UniProt Q9Y6K9 1-419)

Kd [2]: 60 nM
B2: peptide P8RD (peptide)
peptide: TVAQLKAQFDIHQAEHQAVKHELEKIEEDFEYIEEQLEQLQREFNKLKSG
modifications: also: N-terminal Fluorescein or Cy5
notes: Peptide probe designed from the crystal structure of the CC2-LZ domain

Kd [2]: 170 nM
B3: peptide PH4 (peptide)
peptide: TVAQLKAQHDIYEAEHQAVEHELEKLEEELEYIKEELEQLQREFNKLSG
modifications: also: N-terminal Fluorescein or Cy5
notes: as for B2
